Results from article PMC12635110.

Biological target: MCPH1-BRCT-eCR (tandem BRCT 2-3 of MCPH1) tandem BRCT domain (BRCT2-3)
Assay: FRAP of eGFP in live cells
Conditions: reference: DMSO, outside spontaneous damage foci; sites S139

## H2AX (from UniProt P16104) ETO ~1 h, within a damage focus
  other: FRAP recovery half-life: same; reference 1.07 ± 0.76
